We go through two molecules from patent publication US20050249750A1.

A word on the IC50: it is the concentration that inhibits the measured activity by half.

Assay [1] has as its target T1, DR molecule DRA1*0101/DRB1*0401 on transfected murine L cells (human), P01903.
T1 chain 1: not shown
T1 chain 2: not shown
In words: FACS, biotinylated peptide 100 µg/ml on DR-transfected murine L cells. Background: Flow cytometry measures light scatter and fluorescence of single cells or particles in a stream.

Assay [2] deals with T2, DR molecule DRA1*0101/DRB1*0701 on transfected murine L cells (human), P01903.
T2 chain 1: not shown
T2 chain 2: not shown
Described as above.

Assay [3] deals with T3, soluble DR 3 (DRB1*0301) class II molecules purified from WT49 EBV-B cells (human), P01903.
T3 chain 1: not shown
T3 chain 2: not shown
In words: peptide competition ELISA, soluble DR 3, biotinylated indicator IAYD(A)5. For orientation: An ELISA detects its analyte on a solid surface through an enzyme-linked reagent.

For assay [4], the target named is T4, soluble DR 2a (DRB5*0101) molecules isolated from L cells transfectant L416.3 (human), P01903.
T4 chain 1: not shown
T4 chain 2: not shown

Assay [5] deals with soluble DR 11 (DRB1*1101) class II molecules purified from SWEIG EBV-B cells (human), P01903. In words: peptide competition ELISA, soluble DR 11, biotinylated indicator TT831-843.
Assay [6] concerns the target T5, soluble DR 1 (DRB1*0101) class II molecules purified from HOM-2 EBV-B cells (human), P01903.
T5 chain 1: not shown
T5 chain 2: not shown
Nature of the assay: peptide competition ELISA, soluble DR 1, biotinylated indicator GFK(A)7.

The target in assay [7] is T6, soluble DR4 (DRB1*0401) class II molecules purified from BSM or PREISS EBV-B cells (human), P01903.
T6 chain 1: not shown
T6 chain 2: not shown
In words: peptide competition ELISA, soluble DR4, biotinylated indicator GFK(A)7.

Assay [8] deals with T7, soluble DR 7 (DRB1*0701) class II molecules purified from EKR EBV-B cells (human), P01903.
T7 chain 1: not shown
T7 chain 2: not shown
In words: peptide competition ELISA, soluble DR 7, biotinylated indicator GFK(A)7, pH 5.

Assay [9] concerns the target T8, soluble DR 8 (DRB1*0801) class II molecules purified from BM9 EBV-B cells (human), P01903.
T8 chain 1: not shown
T8 chain 2: not shown
In words: peptide competition ELISA, soluble DR 8, biotinylated indicator GYR(A)6L.

The target in assay [10] is T6, soluble DR4 (DRB1*0401) class II …. In words: peptide competition ELISA, soluble DR 4, biotinylated indicator UD4.

Where no end group is shown, it is not given here.

For DPNANPNVDPNANPNV (not fully specified (N-terminus)) [NH2 terminal biotinylated T1 peptide], the values for the MFC (mean fluorescence channel) in assay [1] and in [2] were 18.9 MFC and 35.7 MFC, respectively.
In the case of DPNANPNVDPNANPNV (modifications not checked), the IC50 in [3], in assay [4], in assay [5], in [6], in assay [7] and in assay [8] was greater than 100 µM each time. Moreover, the IC50 in assay [9] and in [10] was greater than 100 µM throughout.
